Drawing on patent US20220387457A1, this text covers Km for one protein.

Substrate in the series: CC1(C)Oc2ccc(C#N)cc2[C@@H](N2CCCC2=O)[C@@H]1OP(=O)(O)O
Briefly: purified protein, by the assay type. Format: biochemical, human. The conditions noted are these: other: ALP 0.02 U/100 μL, pH 10, 37.0 °C. How it is done: To activate CKLP1, the phosphate is hydrolyzed from phosphatases to produce leveromakalim, the active moiety that can open (activate) ATP-sensitive potassium channels.
In the first experiment, a fixed concentration of CKLP1 solution was incubated with varying concentrations of placenta-derived human alkaline phosphatase. To accomplish this, placenta-derived human alkaline phosphatase (0.0002 U) in a 100-μL volume was added to each of thirteen 1.5-mL tubes. To each tube, CKLP1 was then added at a fixed concentration [10 mM (0.4%)]. Tubes were inverted twice and incubated in a water bath at 37° C. At each of 13 different time points (0, 1, 2.5, 5, 15, and 30 minutes and at 1, 2, 4, 8, 24, 48, and 72 hours), a single tube was removed, and the reaction was stopped by the addition of 2 volumes (200 μL) of acetonitrile. Samples were stored at −80° C. The experiment was repeated with 10 mM CKLP1 (0.4%) in the presence of placenta-derived human alkaline phosphatase at concentrations of 0.002 U, 0.02 U, and 0.2 U. All assays were performed at pH 10.
In a second experiment, a fixed concentration of placenta-derived human alkaline phosphatase was incubated with varying concentrations of CKLP1. To accomplish this, a fixed concentration of 0.02 U of placenta-derived human alkaline phosphatase in a 100-μL volume was added to each of thirteen 1.5-mL tubes. […]

B1: placenta-derived human alkaline phosphatase (Homo sapiens) (protein)
chain: IIPVEEENPDFWNREAAEALGAAKKLQPAQTAAKNLIIFLGDGMGVSTVTAARILKGQKKDKLGPEIPLAMDRFPYVALSKTYNVDKHVPDSGATATAYLCGVKGNFQTIGLSAAARFNQCNTTRGNEVISVMNRAKKAGKSVGVVTTTRVQHASPAGTYAHTVNRNWYSDADVPASARQEGCQDIATQLISNMDIDVILGGGRKYMFRMGTPDPEYPDDYSQGGTRLDGKNLVQEWLAKRQGARYVWNRTELMQASLDPSVTHLMGLFEPGDMKYEIHRDSTLDPSLMEMTEAALRLLSRNPRGFFLFVEGGRIDHGHHESRAYRALTETIMFDDAIERAGQLTSEEDTLSLVTADHSHVFSFGGYPLRGSSIFGLAPGKARDRKAYTVLLYGNGPGYVLKDGARPDVTESESGSPEYRQQSAVPLDEETHAGEDVAVFARGPQAHLVHGVQEQTFIAHVMAFAACLEPYTACDLAPPAGTTD
notes: varying concentrations of placenta-derived human alkaline phosphatase; from tissue; host or cells: human placenta
For B1, the Km is 399 µM.
